The text below walks through data of patent US20140212976.

This data set has as its system T1, bifurcating NADP Fe-only hydrogenase of C. autoethanogenum.
T1 sequence: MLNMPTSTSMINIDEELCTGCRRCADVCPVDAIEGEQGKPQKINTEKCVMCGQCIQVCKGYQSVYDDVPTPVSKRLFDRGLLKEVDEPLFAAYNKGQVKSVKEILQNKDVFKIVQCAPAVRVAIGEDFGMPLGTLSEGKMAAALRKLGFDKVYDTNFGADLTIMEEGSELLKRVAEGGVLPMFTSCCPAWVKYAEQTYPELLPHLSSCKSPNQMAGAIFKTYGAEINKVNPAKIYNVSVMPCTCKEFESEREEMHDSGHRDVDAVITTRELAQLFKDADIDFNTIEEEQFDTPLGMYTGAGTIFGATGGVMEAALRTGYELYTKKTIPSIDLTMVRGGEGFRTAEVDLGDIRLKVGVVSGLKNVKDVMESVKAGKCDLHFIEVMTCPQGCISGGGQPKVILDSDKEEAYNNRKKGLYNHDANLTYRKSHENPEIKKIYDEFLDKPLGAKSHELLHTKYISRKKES

Consider “bifurcating NADP formate dehydrogenase of C. autoethanogenum”, for which the “Formate-hydrogen lyase activity (using H2)” value is listed as “a high activity of 2.4 U/mg was detected”.
